Reference: the RNAGym collection of RNA variant scans (doi:10.1101/gr.219683.116)

B1: mRNA-splicing (parent)
chain: AGUUGCUGCUGGGAGCUCCAGCACAGUGAAAUGGACAGAAGGGCAGAGCAA

Variants of: B1
Test: exon inclusion enrichment index; higher = more inclusion; WT1 exon 5 minigene, HEK293

In order of falling “exon inclusion enrichment index” value:
1. AGUUGCCGACGGGAGCUCCAGCACAGUGAAAUGGACAGAAGGGCAGAGCAA [U7C C9A U10C]  3.46
2. AGUUGUCGACGGGAGCUCCAGCACAGUGAAAUGGACAGAAGGGCAGAGCAA [C6U U7C C9A U10C]  3.37
3. AGUUGCUGUCGGGAGCUCCAGCACAGUGAAAUGGACAGAAGGGCAGAGCAA [C9U U10C]  2.55
4. AGUUGUCACCGGGAGCUCCAGCACAGUGAAAUGGACAGAAGGGCAGAGCAA [C6U U7C G8A U10C]  2.38
5. AGUUGCUGCUUGGAGCUCCAGCACAGUGAAAUGGACAGAAGGGCAGAGCAA [G11U]  2.22
6. AGUUGCUGCCUGGAGCUCCAGCACAGUGAAAUGGACAGAAGGGCAGAGCAA [U10C G11U]  2.21
7. AGUUGCUGCUCGGAGCUCCAGCACAGUGAAAUGGACAGAAGGGCAGAGCAA [G11C]  2.05
8. AGUUGCGGACGGGAGCUCCAGCACAGUGAAAUGGACAGAAGGGCAGAGCAA [U7G C9A U10C]  2
9. AGUUGCUGAUGGGAGCUCCAGCACAGUGAAAUGGACAGAAGGGCAGAGCAA [C9A]  1.96
10. AGUUGCAGACGGGAGCUCCAGCACAGUGAAAUGGACAGAAGGGCAGAGCAA [U7A C9A U10C]  1.94
11. AGUUGCAUCUGGGAGCUCCAGCACAGUGAAAUGGACAGAAGGGCAGAGCAA [U7A G8U]  1.83
12. AGUUGCUGCCAGGAGCUCCAGCACAGUGAAAUGGACAGAAGGGCAGAGCAA [U10C G11A]  1.76
13. AGUUGCACCUGGGAGCUCCAGCACAGUGAAAUGGACAGAAGGGCAGAGCAA [U7A G8C]  1.67
14. AGUUGCUGCCCGGAGCUCCAGCACAGUGAAAUGGACAGAAGGGCAGAGCAA [U10C G11C]  1.66
15. AGUUGCCGAAGGGAGCUCCAGCACAGUGAAAUGGACAGAAGGGCAGAGCAA [U7C C9A U10A]  1.64
16. AGUUGCAACUGGGAGCUCCAGCACAGUGAAAUGGACAGAAGGGCAGAGCAA [U7A G8A]  1.49
17. AGUUGUGGACGGGAGCUCCAGCACAGUGAAAUGGACAGAAGGGCAGAGCAA [C6U U7G C9A U10C]  1.45
18. AGUUGCCACUGGGAGCUCCAGCACAGUGAAAUGGACAGAAGGGCAGAGCAA [U7C G8A]  1.44
19. AGUUGCUGUUGGGAGCUCCAGCACAGUGAAAUGGACAGAAGGGCAGAGCAA [C9U]  1.36
20. AGUUGCUCCUGGGAGCUCCAGCACAGUGAAAUGGACAGAAGGGCAGAGCAA [G8C]  1.33
21. AGUUGCUGCUGAAAGCUCCAGCACAGUGAAAUGGACAGAAGGGCAGAGCAA [G12A G13A]  1.29
22. AGUUGCUUCUGGGAGCUCCAGCACAGUGAAAUGGACAGAAGGGCAGAGCAA [G8U]  1.2
23. AGUUGCUGCUGACAGCUCCAGCACAGUGAAAUGGACAGAAGGGCAGAGCAA [G12A G13C]  1.2
24. AGUUGCUACUGGGAGCUCCAGCACAGUGAAAUGGACAGAAGGGCAGAGCAA [G8A]  1.09
25. AGUUGCCUCUGGGAGCUCCAGCACAGUGAAAUGGACAGAAGGGCAGAGCAA [U7C G8U]  1.05
26. AGUUGCCCCUGGGAGCUCCAGCACAGUGAAAUGGACAGAAGGGCAGAGCAA [U7C G8C]  1.02
27. AGUUGCGGAAGGGAGCUCCAGCACAGUGAAAUGGACAGAAGGGCAGAGCAA [U7G C9A U10A]  1
28. AGUUGUCGAAGGGAGCUCCAGCACAGUGAAAUGGACAGAAGGGCAGAGCAA [C6U U7C C9A U10A]  0.879
29. AGUUGCUGCUGUCAGCUCCAGCACAGUGAAAUGGACAGAAGGGCAGAGCAA [G12U G13C]  0.721
30. AGUUGCUGCUAGGAGCUCCAGCACAGUGAAAUGGACAGAAGGGCAGAGCAA [G11A]  0.618
31. AGUUGCUGCUGUAAGCUCCAGCACAGUGAAAUGGACAGAAGGGCAGAGCAA [G12U G13A]  0.608
32. AGUUGCAGAAGGGAGCUCCAGCACAGUGAAAUGGACAGAAGGGCAGAGCAA [U7A C9A U10A]  0.589
33. AGUUGCUCUCGGGAGCUCCAGCACAGUGAAAUGGACAGAAGGGCAGAGCAA [G8C C9U U10C]  0.579
34. AGUUGCCGCUGGGAGCUCCAGCACAGUGAAAUGGACAGAAGGGCAGAGCAA [U7C]  0.538
35. AGUUGCUGCUGAUAGCUCCAGCACAGUGAAAUGGACAGAAGGGCAGAGCAA [G12A G13U]  0.459
36. AGUUGCAGCUGGGAGCUCCAGCACAGUGAAAUGGACAGAAGGGCAGAGCAA [U7A]  0.394
37. AGUUGCUAAUGGGAGCUCCAGCACAGUGAAAUGGACAGAAGGGCAGAGCAA [G8A C9A]  0.383
38. AGUUGCUAUUGGGAGCUCCAGCACAGUGAAAUGGACAGAAGGGCAGAGCAA [G8A C9U]  0.355
39. AGUUGCUGGCGGGAGCUCCAGCACAGUGAAAUGGACAGAAGGGCAGAGCAA [C9G U10C]  0.22
40. AGUUGCUGCUGUUAGCUCCAGCACAGUGAAAUGGACAGAAGGGCAGAGCAA [G12U G13U]  0.199
41. AGUUGUGGAAGGGAGCUCCAGCACAGUGAAAUGGACAGAAGGGCAGAGCAA [C6U U7G C9A U10A]  0.189
42. AGUUGCGGCUGGGAGCUCCAGCACAGUGAAAUGGACAGAAGGGCAGAGCAA [U7G]  0.183
43. AGUUGUCGCUGGGAGCUCCAGCACAGUGAAAUGGACAGAAGGGCAGAGCAA [C6U U7C]  0.178
44. AGUUGUCACAGGGAGCUCCAGCACAGUGAAAUGGACAGAAGGGCAGAGCAA [C6U U7C G8A U10A]  0.155
45. AGUUGCUGGUGGGAGCUCCAGCACAGUGAAAUGGACAGAAGGGCAGAGCAA [C9G]  0.154
46. AGUUGCUGCUGGAAGCUCCAGCACAGUGAAAUGGACAGAAGGGCAGAGCAA [G13A]  0.135
47. AGUUGCUAGUGGGAGCUCCAGCACAGUGAAAUGGACAGAAGGGCAGAGCAA [G8A C9G]  0.0723
48. AGUUGCUGCUGGCAGCUCCAGCACAGUGAAAUGGACAGAAGGGCAGAGCAA [G13C]  0.0504
49. AGUUGCUGGGGGGAGCUCCAGCACAGUGAAAUGGACAGAAGGGCAGAGCAA [C9G U10G]  0.0139
50. AGUUGUGGCUGGGAGCUCCAGCACAGUGAAAUGGACAGAAGGGCAGAGCAA [C6U U7G]  0.0137
51. AGUUGCUGGAGGGAGCUCCAGCACAGUGAAAUGGACAGAAGGGCAGAGCAA [C9G U10A]  0.0101
